In US20210388087A1 (Chugai, published 2021):
Substitutions are numbered along the chain they refer to. Values belong to the binder of their own block, whether it stands above or below them.

Target: T1, CD3 epsilon homodimer protein (UniProt P07766 23-126)
T1 construct: also called CD3 (CD3 epsilon)
Test: SPR, CD3 epsilon homodimer on chip, one-arm antibody as analyte;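 further: surface plasmon resonance at 25 °C with CD3 epsilon homodimer amine-coupled to a CM4 sensor chip, antibody injected as analyte, HBS-EP+ as running buffer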

T1 sequence (P07766 23-126): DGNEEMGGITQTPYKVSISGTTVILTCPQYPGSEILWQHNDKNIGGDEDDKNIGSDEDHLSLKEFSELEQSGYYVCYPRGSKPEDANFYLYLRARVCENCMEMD

KD ratio (KD of CE115HA000/KD of altered form): 0.88
B2: CE115HA000 K43E (antibody, human IgG1, kappa, L234A L235A, N297A, name in Kabat numbering)
heavy: QVQLVESGGGVVQPGRSLRLSCAASGFTFSNAWMHWVRQAPGEGLEWVAQIKAKSNNYATYYAESVKGRFTISRDDSKNSLYLQMNSLKTEDTAVYYCRYVHYGAYYGVDAWGQGTTVTVSSASTKGPSVFPLAPSSKSTSGGTAALGCLVKDYFPEPVTVSWNSGALTSGVHTFPAVLQSSGLYSLSSVVTVPSSSLGTQTYICNVNHKPSNTKVDKKVEPKSCDKTHTCPPCPAPEAAGGPSVFLFPPKPKDTLMISRTPEVTCVVVDVSHEDPEVKFNWYVDGVEVHNAKTKPREEQYASTYRVVSVLTVLHQDWLNGKEYKCKVSNKALPAPIEKTISKAKGQPREPQVYTLPPSRCELTKNQVSLSCAVKGFYPSDIAVEWESNGQPENNYKTTPPVLDSDGSFFLVSKLTVDKSRWQQGNVFSCSVMHEALHNHYTQKSLSLSPDYKDDDDK
chain: EPKSSDKTHTCPPCPAPELLGGPSVFLFPPKPKDTLMISRTPEVTCVVVDVSHEDPEVKFNWYVDGVEVHNAKTKPREEQYNSTYRVVSVLTVLHQDWLNGKEYKCKVSNKALPAPIEKTISKAKGQPREPQVCTLPPSRDELTKNQVSLWCLVKGFYPSDIAVEWESNGQPENNYKTTPPVLDSDGSFFLYSKLTVDKSRWQQGNVFSCSVMHEALHNRYTQKSLSLSP
light: DIVMTQSPLSLPVTPGEPASISCRSSQSLVHSNRNTYLHWYQQKPGQAPRLLIYKVSNRFSGVPDRFSGSGSGTDFTLKISRVEAEDVGVYYCGQGTQVPYTFGQGTKLEIKRTVAAPSVFIFPPSDEQLKSGTASVVCLLNNFYPREAKVQWKVDNALQSGNSQESVTEQDSKDSTYSLSSTLTLSKADYEKHKVYACEVTHQGLSSPVTKSFNRGEC
notes: one-arm antibody

KD ratio (KD of CE115HA000/KD of altered form): 4.04
B4: CE115HA000 K52F (antibody, human IgG1, kappa, L234A L235A, N297A, name in Kabat numbering)
heavy: B2 heavy with E43K, K52F
chain: B2 chain
light: B2 light
notes: one-arm antibody

KD ratio (KD of CE115HA000/KD of altered form): 3.54
B6: CE115HA000 K52I (antibody, human IgG1, kappa, L234A L235A, N297A, name in Kabat numbering)
heavy: B2 heavy with E43K, K52I
chain: B2 chain
light: B2 light
notes: one-arm antibody

KD ratio (KD of CE115HA000/KD of altered form): 0.89
B7: CE115HA000 K43Q (antibody, human IgG1, kappa, L234A L235A, N297A, name in Kabat numbering)
heavy: B2 heavy with E43Q
chain: B2 chain
light: B2 light
notes: one-arm antibody

KD ratio (KD of CE115HA000/KD of altered form): 2.69
B10: CE115HA000 K52W (antibody, human IgG1, kappa, L234A L235A, N297A, name in Kabat numbering)
heavy: B2 heavy with E43K, K52W
chain: B2 chain
light: B2 light
notes: one-arm antibody

KD ratio (KD of CE115HA000/KD of altered form): 0.8
B12: CE115HA000 K52R (antibody, human IgG1, kappa, L234A L235A, N297A, name in Kabat numbering)
heavy: B2 heavy with E43K, K52R
chain: B2 chain
light: B2 light
notes: one-arm antibody

KD ratio (KD of CE115HA000/KD of altered form): 166
B13: CE115HA000 K52D (antibody, human IgG1, kappa, L234A L235A, N297A, name in Kabat numbering)
heavy: B2 heavy with E43K, K52D
chain: B2 chain
light: B2 light
notes: one-arm antibody

KD ratio (KD of CE115HA000/KD of altered form): 6.47
B15: CE115HA000 K52Y (antibody, human IgG1, kappa, L234A L235A, N297A, name in Kabat numbering)
heavy: B2 heavy with E43K, K52Y
chain: B2 chain
light: B2 light
notes: one-arm antibody

KD ratio (KD of CE115HA000/KD of altered form): 2.65
B17: CE115HA000 K52H (antibody, human IgG1, kappa, L234A L235A, N297A, name in Kabat numbering)
heavy: B2 heavy with E43K, K52H
chain: B2 chain
light: B2 light
notes: one-arm antibody

KD ratio (KD of CE115HA000/KD of altered form): 92.1
B18: CE115HA000 K52S (antibody, human IgG1, kappa, L234A L235A, N297A, name in Kabat numbering)
heavy: B2 heavy with E43K, K52S
chain: B2 chain
light: B2 light
notes: one-arm antibody

KD ratio (KD of CE115HA000/KD of altered form): 19.4
B22: CE115HA000 K52E (antibody, human IgG1, kappa, L234A L235A, N297A, name in Kabat numbering)
heavy: B2 heavy with E43K, K52E
chain: B2 chain
light: B2 light
notes: one-arm antibody

KD ratio (KD of CE115HA000/KD of altered form): 3.29
B23: CE115HA000 K52N (antibody, human IgG1, kappa, L234A L235A, N297A, name in Kabat numbering)
heavy: B2 heavy with E43K, K52N
chain: B2 chain
light: B2 light
notes: one-arm antibody

The remaining lines, values behind:

B1: CE115HA000 H35Y (antibody, human IgG1, kappa, L234A L235A, N297A, name in Kabat numbering)
heavy: B2 heavy with H35Y, E43K
chain: B2 chain
light: B2 light
notes: one-arm antibody
KD ratio (KD of CE115HA000/KD of altered form): 119000

B3: CE115HA000 I51D (antibody, human IgG1, kappa, L234A L235A, N297A, name in Kabat numbering)
heavy: B2 heavy with E43K, I51D
chain: B2 chain
light: B2 light
notes: one-arm antibody
KD ratio (KD of CE115HA000/KD of altered form): 6.37

B5: CE115HA000 H96S (antibody, human IgG1, kappa, L234A L235A, N297A, name in Kabat numbering)
heavy: B2 heavy with E43K, H102S
chain: B2 chain
light: B2 light
notes: one-arm antibody
KD ratio (KD of CE115HA000/KD of altered form): 1.15

B8: CE115HA000 H96P (antibody, human IgG1, kappa, L234A L235A, N297A, name in Kabat numbering)
heavy: B2 heavy with E43K, H102P
chain: B2 chain
light: B2 light
notes: one-arm antibody
KD ratio (KD of CE115HA000/KD of altered form): 87000

B9: CE115HA000 H96G (antibody, human IgG1, kappa, L234A L235A, N297A, name in Kabat numbering)
heavy: B2 heavy with E43K, H102G
chain: B2 chain
light: B2 light
notes: one-arm antibody
KD ratio (KD of CE115HA000/KD of altered form): 0.8

B11: CE115HA000 H96K (antibody, human IgG1, kappa, L234A L235A, N297A, name in Kabat numbering)
heavy: B2 heavy with E43K, H102K
chain: B2 chain
light: B2 light
notes: one-arm antibody
KD ratio (KD of CE115HA000/KD of altered form): 1.56

B14: CE115HA000 H96Q (antibody, human IgG1, kappa, L234A L235A, N297A, name in Kabat numbering)
heavy: B2 heavy with E43K, H102Q
chain: B2 chain
light: B2 light
notes: one-arm antibody
KD ratio (KD of CE115HA000/KD of altered form): 1.36

B16: CE115HA000 H96R (antibody, human IgG1, kappa, L234A L235A, N297A, name in Kabat numbering)
heavy: B2 heavy with E43K, H102R
chain: B2 chain
light: B2 light
notes: one-arm antibody
KD ratio (KD of CE115HA000/KD of altered form): 1.59

B19: CE115HA000 I51E (antibody, human IgG1, kappa, L234A L235A, N297A, name in Kabat numbering)
heavy: B2 heavy with E43K, I51E
chain: B2 chain
light: B2 light
notes: one-arm antibody
KD ratio (KD of CE115HA000/KD of altered form): 0.54

B20: CE115HA000 H96L (antibody, human IgG1, kappa, L234A L235A, N297A, name in Kabat numbering)
heavy: B2 heavy with E43K, H102L
chain: B2 chain
light: B2 light
notes: one-arm antibody
KD ratio (KD of CE115HA000/KD of altered form): 3.14

B21: CE115HA000 H96Y (antibody, human IgG1, kappa, L234A L235A, N297A, name in Kabat numbering)
heavy: B2 heavy with E43K, H102Y
chain: B2 chain
light: B2 light
notes: one-arm antibody
KD ratio (KD of CE115HA000/KD of altered form): 6.67
